# Earlier results, collected in article PMC4507496.
# Read-outs that look alike come from different tables or passages of the source.
# Experiments:
# ATG7 (Homo sapiens) [1] = target: ATG7 (Homo sapiens) (UniProt O95352); settings: cited from earlier work
# ATG7 (Homo sapiens) [2] = target: ATG7 (Homo sapiens) (UniProt O95352); settings: cited from earlier work; remark: listed apart in the source
# Sequence of ATG7 (Homo sapiens) (O95352 2-703): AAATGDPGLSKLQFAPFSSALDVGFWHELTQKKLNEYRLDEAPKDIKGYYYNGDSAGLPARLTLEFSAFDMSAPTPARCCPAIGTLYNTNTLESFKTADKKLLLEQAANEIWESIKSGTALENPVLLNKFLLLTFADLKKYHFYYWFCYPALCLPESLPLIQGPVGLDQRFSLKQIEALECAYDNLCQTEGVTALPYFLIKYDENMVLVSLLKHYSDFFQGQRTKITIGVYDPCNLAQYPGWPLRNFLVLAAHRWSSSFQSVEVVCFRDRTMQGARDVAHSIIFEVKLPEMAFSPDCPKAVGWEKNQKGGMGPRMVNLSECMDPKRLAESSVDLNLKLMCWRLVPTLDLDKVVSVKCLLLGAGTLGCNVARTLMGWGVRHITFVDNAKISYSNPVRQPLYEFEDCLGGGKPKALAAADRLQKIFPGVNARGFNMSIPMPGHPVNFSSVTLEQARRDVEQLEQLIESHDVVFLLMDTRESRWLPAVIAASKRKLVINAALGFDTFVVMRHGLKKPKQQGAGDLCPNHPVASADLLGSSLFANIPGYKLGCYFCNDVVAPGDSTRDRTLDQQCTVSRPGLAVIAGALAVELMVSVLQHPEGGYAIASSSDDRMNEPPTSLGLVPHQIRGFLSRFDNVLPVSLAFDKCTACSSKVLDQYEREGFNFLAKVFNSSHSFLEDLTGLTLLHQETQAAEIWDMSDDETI
# Sequence of ATG3 (Q9NT62 whole entry): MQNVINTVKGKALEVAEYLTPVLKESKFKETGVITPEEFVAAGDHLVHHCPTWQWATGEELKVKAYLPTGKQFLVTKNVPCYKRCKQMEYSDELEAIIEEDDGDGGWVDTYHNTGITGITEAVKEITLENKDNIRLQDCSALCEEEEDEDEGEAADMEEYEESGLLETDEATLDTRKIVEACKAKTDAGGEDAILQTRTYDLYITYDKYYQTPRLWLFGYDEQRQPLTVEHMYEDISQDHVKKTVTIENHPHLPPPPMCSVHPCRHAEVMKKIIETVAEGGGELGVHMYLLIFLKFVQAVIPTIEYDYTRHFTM
# Sequence of ATG3 flexible region flexible region (Q9NT62 90-190): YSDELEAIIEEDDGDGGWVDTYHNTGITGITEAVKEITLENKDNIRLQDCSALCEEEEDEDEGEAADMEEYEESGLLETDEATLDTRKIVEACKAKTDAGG
Substance,Kd (ATG7 (Homo sapiens) [1]),Kd (ATG7 (Homo sapiens) [2])
ATG3 (from UniProt Q9NT62),2200 nM,
ATG3 flexible region flexible region (from UniProt Q9NT62),,> 70 µM
